± gives the standard deviation of the averaged measurements.
The sequences below were run on Saccharomyces cerevisiae (assay: protein stability index of tFT-peptide fusion (C-terminal peptide) (PSI (0-1 scale)); higher = more stable (slower turnover)). Settings: genetic background: wild type; temperature: 30 C.
Protocol: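 Multiplexed protein stability (MPS) profiling in S. cerevisiae. Random 12-aa peptides (tFT-X12 library) are fused to the C-terminus of a sfGFP-mCherry tandem fluorescent timer, after mCherry and a GGGS linker. Cells are FACS-sorted into 8 mCherry/sfGFP bins and deep-sequenced. The protein stability index (PSI) is the read-weighted bin average, scaled from 0 (unstable) to 1 (stable). Only peptides with >10 reads are reported; cells were grown at 30 °C in SC-His with glucose.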
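Further: PSI is a weighted mean of sequencing reads over stability bins, variants kept only with over 10 reads, mCherry proximal and sfGFP distal, peptide attached via GGGS linker.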

Sequence	protein stability index
VGEGGGEVMGEA	0.712 ± 0.085
NMCHVYTIIPSK	0.632 ± 0.024
GHVLVRHNVLAV	0.58 ± 0.026
PHPAPPPNPLVP	0.739 ± 0.017
PGQSSPLPPDVS	0.653 ± 0.078
QNNRKEIKRNEI	0.6662 ± 0.0039
SKKRKRNKKKGE	0.74 ± 0.098
KHKKKRTRDHEE	0.666 ± 0.012
ETRSDAVVVFTK	0.694 ± 0.021
GGSGAVRSVGEW	0.668 ± 0.036
VGIFQLCCALGG	0.47 ± 0.085
SILFMYPARNAP	0.7177 ± 0.0028
RLRTVQNLQIVV	0.658 ± 0.028
FPLSPPAPPLTP	0.702 ± 0.013
VPRLPPSPPPLP	0.779 ± 0.076
PPPPLPPRPSPP	0.71 ± 0.074
SGRVRPNSRASP	0.698 ± 0.073
GGVSKGLGARGR	0.601 ± 0.042
TFPHSWHISSVP	0.677 ± 0.024
PPPRPPSTTSPC	0.7037 ± 0.0047
GWWGCGGWGFVG	0.624 ± 0.05
HHQVVPDVSLVS	0.6585 ± 0.0013
HLPRRAAILNEF	0.709 ± 0.049
WPYEPGSSIVNG	0.717 ± 0.01
SMFLGLCGSIYG	0.699 ± 0.056

Sequence	protein stability index
PLPPRPSPPPPL	0.705 ± 0.013
LWISVDEGQLCH	0.617 ± 0.042
PPPPPSRPPPAL	0.7405 ± 0.0049
GFCRKESVRCEK	0.683 ± 0.018
AGTHRDLFQRWS	0.711 ± 0.046
SFPHSFLFPLFP	0.751 ± 0.09
VGFGARGVPGGG	0.681 ± 0.019
TSWGSRWLPYAS	0.665 ± 0.025
LTDCIHERKGTE	0.743 ± 0.017
AQIGTKINTRKT	0.599 ± 0.04
PSRLPSPPPPPP	0.721 ± 0.073
GLCTSIFSVVFF	0.679 ± 0.092
AARGILLASRRD	0.739 ± 0.092
LPLHRFHPPPPY	0.715 ± 0.041
GAGGSGRRIGCR	0.762 ± 0.052
CIARPSGNRSYL	0.714 ± 0.069
LYSPLLCRLPFP	0.666 ± 0.045
GDSGPDDDLGIS	0.667 ± 0.065
SFPVPFPRFFPP	0.714 ± 0.03
DEEVGWGRGVGW	0.72 ± 0.074
CLLLSLRVPPFS	0.638 ± 0.012
LCLGVLRSDCVV	0.675 ± 0.011
PPQPTTPFPSPQ	0.6788 ± 0.0063
VLALLPLFFYFH	0.5041 ± 0.0041
WGGWGVGGRVLW	0.675 ± 0.066

Sequence	protein stability index
YNLASGIEVPID	0.664 ± 0.013
RRKEQGNHSTMR	0.663 ± 0.013
PSPSVVPASSPP	0.669 ± 0.03
CPSFTSVLPSVP	0.678 ± 0.036
ILFIKQKYLIKK	0.6878 ± 0.003
FEDWMQGLGKWV	0.792 ± 0.054
VGCRGTIAIGGR	0.683 ± 0.0071
AILTLVQEVRKY	0.6203 ± 0.00088
SGVCGRVGGGLR	0.622 ± 0.047
TPPRLLLPAATT	0.7244 ± 0.0061
RHKLYPRIVLNR	0.699 ± 0.055
RLPLPPSRLVKH	0.671 ± 0.026
YRVPWIVESFVD	0.751 ± 0.087
GRVSSTRKVGAI	0.678 ± 0.022
GRRVAWGAQGLG	0.602 ± 0.046
RLLSSPLHPPLP	0.701 ± 0.018
FSSFVLLFFSFP	0.541 ± 0.011
GCPSGRDIQSSH	0.643 ± 0.01
GWFVGLVSRSLH	0.67 ± 0.019
KGQKIIKNKNPK	0.644 ± 0.038
VSAPTHVSRVTQ	0.649 ± 0.0088
PPPSPPSPLSPP	0.675 ± 0.073
RLTPFPPRPLPL	0.767 ± 0.2
HRCVQFMNWVAF	0.735 ± 0.045
SVGHPAAVHHAR	0.675 ± 0.068

Sequence	protein stability index
PRPLLLLPPATP	0.703 ± 0.029
PMNCIGTRGHQV	0.65854 ± 0.00043
SSPPPPPPPPSP	0.746 ± 0.053
KEKKENKRKNTT	0.699 ± 0.051
SPPPPLPPPLPP	0.52453 ± 0.00047
GFQIVCSAGERV	0.611 ± 0.027
LSPPLRFPPPPP	0.709 ± 0.073
EARPQAMPGRHP	0.689 ± 0.024
GVIFRRFDVGLS	0.682 ± 0.053
NRNVLKTRKKST	0.593 ± 0.018
NSEKKKKRKEKK	0.731 ± 0.024
NKKVRSKRKEMN	0.637 ± 0.093
LTSWAKRMGLGD	0.731 ± 0.1
KIRKYTKGQIMQ	0.687 ± 0.007
SRNRYSSPPVFI	0.644 ± 0.039
GFSSSFAGGLLF	0.763 ± 0.036
FGVVLVGAGWGG	0.67 ± 0.035
TLRILTRRGLVP	0.703 ± 0.12
WCWCSLVVDGTA	0.5707 ± 0.0047
VGCLNCWLPFLG	0.666 ± 0.048
RRSRTEVVAVGG	0.676 ± 0.017
ADDTFSERIHSK	0.7 ± 0.093
SGAGVGWGCSSV	0.635 ± 0.047
LSSGCSVKLRAQ	0.67 ± 0.015
PLLHPPPRASLL	0.792 ± 0.13

Sequence	protein stability index
NKNKDNNEIVKK	0.677 ± 0.068
RHLPPAPAPRFI	0.717 ± 0.2
MCDSFFGHSVRN	0.699 ± 0.043
LAGVSSPLPPPP	0.685 ± 0.025
LSLTIYVSELFR	0.587 ± 0.0084
LPWCSTLEIRER	0.694 ± 0.011
PPAPPHLPPLPR	0.71574 ± 0.00046
QDDTASMVVMIR	0.697 ± 0.034
YACRLAPGDLLA	0.643 ± 0.0088
PPPPPPHPLLST	0.708 ± 0.073
APPPNSLPPPPP	0.72 ± 0.022
VLGLLFLLCVFM	0.6436 ± 0.0038
PVLPPPAPSPPP	0.678 ± 0.042
SAFLRRFLFFQW	0.572 ± 0.035
LADLSAPAPCLP	0.689 ± 0.091
SNRALHATPCPR	0.9 ± 0.038
GRQILMLGYMVA	0.548 ± 0.012
GWGGGGGAGGSV	0.683 ± 0.018
SLSRPASPPPHH	0.674 ± 0.12
HPYTPLLSRLSP	0.708 ± 0.0077
KKKKHKAKGKIG	0.695 ± 0.049
HLPPSSPPLAVI	0.68 ± 0.009
SLPHHRPPHPRT	0.752 ± 0.17
PPPPPPPPSSSL	0.6819 ± 0.0041
PGQRSRGPPGRA	0.737 ± 0.076

Sequence	protein stability index
RGPPGVPGSDML	0.673 ± 0.023
PPWTNALMILLD	0.689 ± 0.039
GGDVCGWWCWRG	0.645 ± 0.098
GRRKGGRKAREC	0.588 ± 0.017
SSPLRVLGPESG	0.689 ± 0.062
LRGLVGEYRRLK	0.656 ± 0.057
LWGGVVGRVRGV	0.635 ± 0.037
ALVQWRVGGCGG	0.709 ± 0.085
IGVSDSGMWMGN	0.694 ± 0.026
GFMSFAVTCGLL	0.688 ± 0.11
THTEWVQFIRWY	0.733 ± 0.073
IDSCFKEVAYGK	0.625 ± 0.014
KKKKQKIKKQRK	0.63 ± 0.00095
NGQSELHDHYME	0.651 ± 0.013
PVVKVCRPVFLD	0.829 ± 0.13
RPPSNRPPPPSS	0.698 ± 0.0032
VGGAWRMGRGGG	0.658 ± 0.018
SKKARIYIKKRR	0.683 ± 0.053
QLCRPRIFTNRG	0.662 ± 0.034
LPGLSRATTVYP	0.679 ± 0.065
KKKEKKNIHSKT	0.646 ± 0.029
MKKVQENIKGKH	0.717 ± 0.11
SLPPSPPPPSLP	0.715 ± 0.028
AIKHMVSHSPGN	0.683 ± 0.08
LHCPRICYSPHL	0.715 ± 0.059

Sequence	protein stability index
HPPPDPLPSRPS	0.765 ± 0.093
RSVGPPTLPTHP	0.666 ± 0.023
FPPAHPVHFSPP	0.717 ± 0.047
LEYLGFSLSGFR	0.724 ± 0.016
WGGCGSVGRGGA	0.739 ± 0.052
RRGRGGSGGSAP	0.734 ± 0.053
EIKKKNPSTTRR	0.663 ± 0.01
PPSVLLPLACPP	0.677 ± 0.008
GGILSRVFFLCG	0.679 ± 0.017
VFGAAGVRFFVG	0.58 ± 0.022
PPYSIPARAPHP	0.7036 ± 0.0015
PPPTSPPRPASP	0.697 ± 0.059
PICAWGRPRTPM	0.7639 ± 0.0017
NVCSSFLAELVN	0.6051 ± 0.0029
PLFSFLPPPLPP	0.697 ± 0.017
PTAPPRLRLSFC	0.667 ± 0.0089
EFFVLVHLVDPK	0.638 ± 0.041
ILTDFELLPVYR	0.731 ± 0.063
SLRSGFVSHFSP	0.689 ± 0.11
GTKDRSNMIRKS	0.6702 ± 0.0044
TPASSLFRCASR	0.656 ± 0.028
AQTASQSPYRVG	0.731 ± 0.017
ASNVHSSTARFI	0.687 ± 0.082
GLGREVAIMNTW	0.669 ± 0.058
KKKKKSKIEKKD	0.725 ± 0.077

Sequence	protein stability index
GEGRWWGSFWVG	0.672 ± 0.019
AGGVESGGRSGV	0.679 ± 0.02
KRKKKKEQTKKK	0.752 ± 0.11
FSHLYCSLVTTD	0.681 ± 0.067
MVVLSGVLPVGD	0.642 ± 0.0077
LHEHHSFCFRLL	0.658 ± 0.1
KRDVRRLYRKRV	0.7052 ± 0.0068
VHESARAAGSDW	0.647 ± 0.062
TWPSGRASGHVG	0.702 ± 0.0079
FIKRINSYTGWI	0.663 ± 0.062
ARSQGEKGGDVV	0.692 ± 0.0072
PPPAPRPPASPP	0.69815 ± 0.00052
DLPRCPPSPPPS	0.713 ± 0.046
KKGKGKTETIKT	0.695 ± 0.03
SFSFPFFFWGLL	0.592 ± 0.0061
KASSGRASGSMA	0.673 ± 0.09
KEERGINNKKGK	0.691 ± 0.071
VGRGCVLGVWEG	0.715 ± 0.035
LLSLVSDFLFGL	0.698 ± 0.042
FPTIGLSCSFPH	0.676 ± 0.042
IKFVRLEGLCPL	0.624 ± 0.019

Reference: the supplement of paper PMC10724198
